Assay results as given in the Human Domainome abundance scans (Beltran et al. 2025).

B1: Myocardin-related transcription factor A, residues 341 to 383; numbered along this chain, Q969V6 (parent)
chain: GALPANLDDMKVAELKQELKLRSLPVSGTKTELIERLRAYQDQ

Variants of: B1
Test: abundance fitness (aPCA) (normalised: wild type 0, dead -1); higher = more abundant; growth selection in yeast, the domain comes from the species named
Conditions: Homo sapiens

Abundance fitness: each site, then its substitutions
L15: F -0.466 | V -0.092 | M -0.481 | T -0.403 | W -1.38 | A -0.336 | H -0.621 | K -0.508
A2: M 0.433 | L 0.208 | T 0.161 | D 0.26 | E 0.136 | K 0.588 | W -0.145 | R 0.034 | F 0.024 | P -0.041 | Q 0.34 | G 0.035 | C -0.077 | S 0.209
E14: Y -0.147 | G -0.165 | D -0.266 | W -0.314 | M 0.022 | C -0.311 | S -0.056 | K -0.215 | Q -0.063 | R -0.169 | F -0.3 | T -0.134 | A -0.079 | H 0.136 | V -0.127 | L -0.355 | P -0.656
M10: K -0.151 | R -0.537 | A -0.104 | V -0.872 | I -0.302 | G -0.839 | Q -0.434 | D -0.894 | S -0.256 | E -0.979 | W -0.41 | T -0.568 | P -0.531 | Y -0.068 | N -0.425 | C -0.441 | L -0.222
L7: H -0.87 | W -0.429 | R -0.614 | S -0.47 | D -1.17 | T -0.136 | G -0.305 | E -0.924 | A -0.097 | V -0.199 | C -0.157 | Q -0.763
Q17: K -0.283 | P -0.794 | G -0.153 | R -0.049 | D -0.247 | L -0.306 | A 0.015 | C -0.593 | F -0.234 | M 0.079 | E 0.048
L3: G 0.028 | I 0.144 | A -0.431 | T -0.598 | C 0.016
